Laboratory results taken from the nanobody polyreactivity screen of Harvey et al. (2022).

Experiment: yeast display, Sf9 membrane polyspecificity reagent, FACS + sequencing; frameworks hold sequencing errors
Outline: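 Nanobodies from a synthetic yeast display library (Saccharomyces cerevisiae BJ5465), induced 36–48 hours with galactose, were stained 1 hour at 4 °C with 10% biotinylated, detergent-solubilized Sf9 membrane reagent, enriched on streptavidin microbeads, then FACS-sorted. Anti-HA (expression) and streptavidin (reagent binding) fluorescence set low and high (top ~1%) gates. Polyreactivity labels come from the gate of origin. Genes were colony-PCR amplified, MiSeq 2 × 250 sequenced and filtered by CDR length.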

| Sequence | polyreactivity (PSR sort gate) |
| --- | --- |
| QVQLVESGGGLVQAGGSLSLSCAATGINYGDYAMGWYRQAPGKERELVAAISSDTSTNYADSVKGRFTISRDNAKNTVYLQMNSLKPEDTAVYECAAEGSYYGWYQGFDYWGQGTQVTVSS | low polyreactivity |
| QVQLVESGGGLVQAGGSLRLSCAASGSTFVVNAMGWYSQAPGKERELVAAIDGSDGSTYYADSVKGRFTISRDNAKNTVYLQMNSLKPEDTAVYYCAAEVLGRPDVENDYWGQGTHVTVSS | low polyreactivity |
| QVQLVESGGGLVQAGGSLRLSCAASGRIILVYAMGWYRQAPGKEREVVAAISSGGSTYYADSVKGRFTISRDTAKNPVYLQMNSLKPDDTAVYYSAARTAVGPIRSYWYDYWGQGTQVTVSS | low polyreactivity |
| QVQLVESGGGLVQAGGSLSLSCAASGYTFPYYTMGWYRQAPGKERELVATITRRGDSTYYADSVKGRFTISRDNAKNTVYLQMNSLKPEDTAVYYCNTASYGRHQFRKSSKMDYWGQGTQVTVSS | high polyreactivity |
| QVQLVESGGGLVQAGGSLRLSCAASGRIFYGNAMGWYRQAPGKERELVAVITSSGGSTYYADSVKGRFTISRDNAKNTVYLQMNSLKPEDTAVYYCAKYYRHWYTHLGYDYWGQGTQVTVSS | high polyreactivity |
| QDQLVESGGGLVQAGGSLRLSCAASGFTIGYNVMGWYRQAPGKERELVATISWNGARTYYADSVKGRFTISRDNAKNTVYLQMNSLKPEETAVYYCAARRYYRGEYDYWGQGTQVTVSS | low polyreactivity |
| QVLLQESGGLVQAGCSLRMSCAASGSISTALSMGWYRQAPGKERELVATISDGASTNYADSVKGRFTISRVNAKNTVYLQMNSLKPEDSEVYYCAAQSQYRPDHRYWGQGTQVTVSS | high polyreactivity |
| QVQLVESGGGLVQAGGSLRLSCAASGPTLRSYAMGWYRQAPGKERELVAAITRASGARTFYADSVKGRFTISRDSAKNTVYLQMNSLKPEDSAGYYCTAVGRSDLFEYWGQGTQVTVSS | high polyreactivity |
| QVQLVESGGGLVQAGGSLRISCAASGFTFNANAMAWYRQAPGKERELVAAISLSGGRTYYADSVKRRFTISRDNAKNTVYLQMNSMKQVDTAVYYCAASPDGSFRRFSRVVSGDYWGQGTQVTVSS | high polyreactivity |
| QVQLVDSGGGLVQAGGRLRLSCAASGRTFRTNAMGWYRQAPGKERELVAAISRTGRTNYADSVKGRFTISRDNAKNTVYLQMNSLKPEDTAVYYCAADRVGWSGYRGDYWGQGTQVTVSS | high polyreactivity |
| QVQLVESGGGLVQAGGSLRLSCAASGSIFIPYTMGWYRQEPGKARELVAAITKRGGSTYYADSVKGRFTISRDNAKNSVYLQMNSLKPEDTAVYYCNAIKYDPGRWAEYGYWGQGTQVTVSS | high polyreactivity |
| QVQLQESGGGQVQAGGSLRLSCAASGYISTHYFMGWYRQAPGKDREFVAGISNGSITNYADSVKGRFTISRDNARNTVYLQMNSLKPEDTAVYYGAAYDWTYVRFGYWGQGTQVTVSG | high polyreactivity |
| QVQLVESGGGLVQAGGSLRLSCAASGSIFRGYAMGWYRQAPGKERELVAAISWSGGSTYYADSVKGRFTISRDNAKNTVYLQMNSLKPEDTAVYYCAVEYVAYLYRMDYWGQGTQVTVSS | high polyreactivity |
| QVQLVESGGGLVQAGGSLRLRCAASGITFKWYAMGWYRQATGKEREFVAIISTRAGSTYYADSVKGRFTISRDNAKNTVSLQMNSLIPEDSAVYYCNAVRSRGLHRRGDFDYWGQGTQVTVSS | high polyreactivity |
| QVQLVESGGGLVQAGGSLRLSCAASGSILLIYAMGWYRQAPGKERELVAGITRGGSTNYADSVKGRFTISRDNAKNTVYLQMNSLKPEDTAVYYCASDGGPARYLVSDRDYWGQGTQVTVSS | low polyreactivity |
| QVQLVDSGGGLVQAGGSLRLSCPASGFTFVIYAMGWYRQEPGKESELVAAIRSGGRTYYADSVKGRFTISRDNAKNTVYLQMNSLKPEDTAVYYCAAVPDLKWFGYEYWGQGTQVTVSS | high polyreactivity |
| QVQLVESGGGLVQAGGSLRLSCAASGFIFWRYTMGWYRQAPGKERELVAVISWSGDNTYADSVKGRFTISRDNAKNTVYLQMNSLKPEDTAVYYCGVYRYDYWGQGTQVTVSS | low polyreactivity |
| QVQLVESGGGLVQAGGSLRLSCAASGRIFSVNAMGWYRQAPGKERELVAAITPGASTNYADSVKGRFTISRDNAKNTVYLQMNSLKPEDTAVYYCAAGWVSFEDWVLGSYYEYDYWGQGTQVTVSS | low polyreactivity |
| QVQLVESGGGLVQAGGSLRLSCAASGSTFPRYGMGWYRQAPGKERELVATITNGAITYYADSVKGRFTISRDNAKNTVYLQMNSLKPEDTAVYYCAARHFQVPDYFPEYHYWGQGTQVTVSS | low polyreactivity |
| QVQLVESGGGLVQAGGSLRLSCAASGFTFWIYAMGWYRQAPGKERELVAVISRGGSTYYADSVKGRFTISRDNAKNTVYLQMNSMKPEDTAVYYCNAVGVRGYDYWGQGTQVTVSS | high polyreactivity |
| QVQLVETGRGLVQAGGSLRLICAASGRTFGYYAMGWYRQAPGKEREFVAAISHSAGSTSYADSVKGRFTISRDNAKNTVYLQMNSLKPEDTAVFYFAAEICYLSVPRYDYWGQGTQVTVSS | low polyreactivity |
| QVQLVESGGGLVQAGGSLRLSCAASGIIFWGYAMGWYRQAPGKERELVAAISRGGSTYYADSVKGRFTISRDNAKNTVYLQMNSLKPEDTAVYYCAATGVRTWALDYWGQGTQVTVSS | high polyreactivity |

| Sequence | polyreactivity (PSR sort gate) |
| --- | --- |
| QVQLVESGGGLVQAGGSLRLSCAASGFIFEDYAMGWYTQATGKERELVAAITWRGGRTYYADSVKGRFTISRDNAKNTVYLQMNSLKPEDTAVYYCRPQVYSYASRYGYWGQGTQVTVLS | low polyreactivity |
| QVQHVESGRGLVQAGGILRLSCAASGRIFRMNAMGWYRQATGKERELDAAITWIGGRTYYADSVKGRFTISRDNAKNTVYLQMNSLKPEDTAVYYCAAAYPLDFWFGFEYDYWGQGTQGTVSS | high polyreactivity |
| QVHLVESGGGLVQAGGSLRLSCAASGSTFTPYAMGWYRQAPGKERELVAAITWRTGSTRYADSVKGRFTISRDNAKNTVYLQMNSLKPEDTAVYYCAAKVPRFGAPGVNYWGQGTQVTVSS | high polyreactivity |
| QVQLVESGGGLVQAGGSLRLSCAASGLIFDRSAMGWYRPAPGKERELDAASRWTGASSTYYADSVKGRFTISRDNAKNTVYLQMNSLKPEDTAVYYCNADSPYSFATGPYVLDSDYWGQGTQVTVSS | low polyreactivity |
| QVQLVESGGGLVQAGGSLRLSCAASGRTFGYYARGWYRQAPGKERELVADISSGGSTSYADSVKGRFTISRDNAKNTVYLQMNSLKPEDTAVYYCAADSHQNFSGWLRWPRMDYWGQGSQVTVSS | low polyreactivity |
| QVQLVESGGGLVQAGGSLRLSCAASGYIFFGNAMGWYRQAPGKERELVAAIRGRGTSTYYADSVKGRFTISRDNAKNTVYLQMNSLKPEDTAVYYFDADVVRSNFYGTFMYDYDYWGQGTQVTVSS | low polyreactivity |
| QVQLVESGGGLVQAGGNLRLSCASSGIIFFKYAMGWYRPEPGKERELVAAITSGGSTYYADSVKWRFTISRDNAKKTVYLQMNSLKPEDTAVYYCAAAGGRFIRYCYWGQGTQVTVSS | high polyreactivity |
| QVQLVESGGGLVQAGGSLRLSCAASGLIFSYNAMGWYRQAPGKERELVAAISYSGGSTYYADSVKGRFTNSRDNAKNTVYLQMNSLKPEDTAVYYCAAVWRRQGSAYVGSYGYDYWGQGTQVTVSS | high polyreactivity |
| QVQLVESGGGLVQAGGSLRLSCAASGGTFPYYAMGWYRQAPGKERELVAAITWDGGSTYYADSVKGRFTISRDNAKNTVYLQMNSLKPDATAVYYCNVRYYRYISRYDYWVQGTQVTVSS | high polyreactivity |
| QVQLVESGGGLVQAGGSLRLSCAASGLIFQYYVMGWYRQAPGKERQLVAAISARGGGTYYADSVKGRFTISRDNAKNTVYLQMNSLKPEDTAVYYCAADPVYAGPGYDYWGQGTQVTVSS | high polyreactivity |
| QVQLVESGGGLVQAGGSLRLSCAASGSTFDENAMAWYRQAPGKEWELVAVISDSGGSTYYADSVKGRFTISRDNAKNTVYLQMNSLKPEDTAVYYCAADQSSLDYGNDYWGQGTQVTVSS | low polyreactivity |
| QVQLVESGGGLVQAGGSLRLSCAASGSIFHYYAMGWYRQAPGKERELVAAISWSGGRTNYADSVKGRFTISRDNAKNTVYLQMNSLKPEDTAVYYCAAAERSYSGGGKIGKYYWGQGTQVTVSS | high polyreactivity |
| QVQLVESGGGLVQAGGSLRLSCAASGFTIWRYAMGWYRQAPGKERELVAAISRGGSTNYADSVKGRFTISRDNAKNTVYLQMNSLKPEDTAVYYCAASVQYRRLKKFYYWGQGTQVTVSS | high polyreactivity |
| QVQLVETGGGLVQAGGSLRLSCAASGSIFIYYAMGWYRQAPGKERELVAAIRLSSGSTYYADSVKGRFTISRDNSKNTVYLQMIRLKPEYTAVYYCAARRKRPFSVYDHWGKGTQVTVSS | high polyreactivity |
| QVQLVESGGGLVQAGGSLRLSCAASGRIFSFYVMGWYRQEPGKERELVAAIDNGGGSTYYADSVKGRFTISRDNAKNTVYLQMNSLKPEDTAVYYCAAEVYDSDSEYYYWGQGTQVTVSS | low polyreactivity |
| QVQLVESGGGLVQAGGSLRLSCAASGITFSNYAMGWYRQAPGKERELVAAITLSGGRTYYADSVKGRFTISRDNAKNTVYLQMNSLKPEDTAVYYCAAGRTRRPLGGTTKYYYWGQGTQVTVSS | high polyreactivity |
| QVQLVESGGGLVQAGGRLRLSCAASGRTFATNAMGWYRQAPGKERELVADISGGGSTYYADSVKGRFTISRDNAKNTVYLQMNSLKPEDTAVYYCAARDYHWFQWYDYWGQGTQVTVSS | low polyreactivity |
| QVQLVESGGCLVQAGGSLRLSCAASGRIIYSNGMGWYRQAPGKERELVAAISSGGSTYYADSVKGRFTISRDNAKNTVYLQMNSLKPEDTAVYYCNKDYLLRHYYIYVIEGDYWGQGTQVTVSS | low polyreactivity |
| QVQLVESGGGLVQAGGSLRLSCAASGRIFQYYAMGWYRQAPGKERELVASISGRGGRTYYADSVKGRLTISRDNAKNTVYLQMNSLKPEDTAVYYCNAVFSTIRYIRSYNYWGQGTQVTVSS | high polyreactivity |
| QVQLVESGGGLVQAGGSLRLSCAASGYTFDANAMGWYRQAPGKERELVAAIRSGGGLTYYADSVKGRFTISRDNAKNTVYLQMNSLKPEDTAVYYCAAVTRRDSFEYWGQGTQVTVSS | low polyreactivity |
| QVQLLESGGGLVQAGGSLRLSCASSGRTFRSYGMGWYRQAPGKERELVAVISWRDGSTFYADSVKGRFTISRDNAKNTVYLQMNSLKPEDTAVYYCNARGDVIVTPPKFSFKYEYWGQGTQVTVSS | low polyreactivity |
